Experimental data published in US20200181601A1 (INSTITUT PASTEUR, published 2020).

T1: PulD-N, soluble monomeric fragment corresponding to the N-terminal region of PulD from Klebsiella oxytoca (Klebsiella oxytoca, UniProt P15644 28-264)
T1 construct: domain: N-terminal region of PulD; also called N-terminal domain of PulD
T1 sequence: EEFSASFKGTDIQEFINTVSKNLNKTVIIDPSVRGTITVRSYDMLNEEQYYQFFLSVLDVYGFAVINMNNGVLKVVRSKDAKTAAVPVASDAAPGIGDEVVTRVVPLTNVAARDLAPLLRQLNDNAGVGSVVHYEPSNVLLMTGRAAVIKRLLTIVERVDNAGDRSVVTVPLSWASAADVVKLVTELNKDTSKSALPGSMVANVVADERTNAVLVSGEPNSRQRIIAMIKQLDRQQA

T2: full-length PulD, monomeric (Klebsiella oxytoca, UniProt P15644 28-660)
T2 sequence: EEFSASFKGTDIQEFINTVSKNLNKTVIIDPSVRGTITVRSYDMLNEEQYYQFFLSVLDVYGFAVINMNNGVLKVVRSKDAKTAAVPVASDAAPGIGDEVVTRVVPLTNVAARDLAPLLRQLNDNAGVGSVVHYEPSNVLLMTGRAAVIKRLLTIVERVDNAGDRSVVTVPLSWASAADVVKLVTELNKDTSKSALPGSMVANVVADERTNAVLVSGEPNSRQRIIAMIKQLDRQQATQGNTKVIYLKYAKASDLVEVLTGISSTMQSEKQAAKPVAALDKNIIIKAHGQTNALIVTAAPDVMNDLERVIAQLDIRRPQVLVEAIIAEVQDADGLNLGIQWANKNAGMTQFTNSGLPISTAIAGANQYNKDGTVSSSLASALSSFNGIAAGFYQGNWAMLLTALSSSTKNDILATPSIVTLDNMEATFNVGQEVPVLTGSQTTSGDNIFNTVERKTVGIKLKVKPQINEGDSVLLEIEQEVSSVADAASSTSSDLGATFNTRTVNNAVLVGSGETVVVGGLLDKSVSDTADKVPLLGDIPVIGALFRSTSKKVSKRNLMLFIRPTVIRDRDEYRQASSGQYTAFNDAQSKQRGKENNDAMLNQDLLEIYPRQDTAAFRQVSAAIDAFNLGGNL

B1: wild type Sac7d (recombinant) (other)
chain: VKVKFKYKGEEKEVDTSKIKKVWRVGKMVSFTYDDNGKTGRGAVSEKDAPKELLDMLARAEREKK
notes: also called Sac7d wt; wt Sac7d
B2: Sac7*6-PhoA chimera (binder 6 fused to the N-terminus of E. coli alkaline phosphatase) (designed binder)
chain: RTPEMPVDGTGSVKVKFVLGGEEKEVDTSKIRHVYRYGKHVTFSYDDNGKLGLGLVKEKDAPKELLDMLARAEREKKLRAQPGVLENRAAQGDITAPGGARRLTGDQTAALRDSLSDKPAKNIILLIGDGMGDSEITAARNYAEGAGGFFKGIDALPLTGQYTHYALNKKTGKPDYVTDSAASATAWSTGVKTYNGALGVDIHEKDHPTILEMAKAAGLATGNVSTAELQGATPAALVAHVTSRKCYGPSATSEKCPGNALEKGGKGSITEQLLNARADVTLGGGAKTFAETATAGEWQGKTLREQAQARGYQLVSDAASLNSVTEANQQKPLLGLFADGNMPVRWLGPKATYHGNIDKPAVTCTPNPQRNDSVPTLAQMTDKAIELLSKNEKGFFLQVEGASIDKQGHAANPCGQIGETVDLDEAVQRALEFAKKEGNTLVIVTADHAHASQIVAPDTKAPGLTQALNTKDGAVMVMSYGNSEEDSQEHTGSQLRIAAYGPHAANVVGLTDQTDLFYTMKAALGLK
notes: also called clone 6-alkalin phosphatase fusion; Sac7*-PhoA
B3: Sac7*33-PhoA chimera (binder 33 fused to the N-terminus of E. coli alkaline phosphatase) (designed binder)
chain: RTPEMPVDGTGSVKVKFTWYGEEKEVDTSKIMSVCRWGKRVAFSYDDNGKIDYGLVDEKDAPKELLDMLARAEREKKLRAQPGVLENRAAQGDITAPGGARRLTGDQTAALRDSLSDKPAKNIILLIGDGMGDSEITAARNYAEGAGGFFKGIDALPLTGQYTHYALNKKTGKPDYVTDSAASATAWSTGVKTYNGALGVDIHEKDHPTILEMAKAAGLATGNVSTAELQGATPAALVAHVTSRKCYGPSATSEKCPGNALEKGGKGSITEQLLNARADVTLGGGAKTFAETATAGEWQGKTLREQAQARGYQLVSDAASLNSVTEANQQKPLLGLFADGNMPVRWLGPKATYHGNIDKPAVTCTPNPQRNDSVPTLAQMTDKAIELLSKNEKGFFLQVEGASIDKQGHAANPCGQIGETVDLDEAVQRALEFAKKEGNTLVIVTADHAHASQIVAPDTKAPGLTQALNTKDGAVMVMSYGNSEEDSQEHTGSQLRIAAYGPHAANVVGLTDQTDLFYTMKAALGLK
B4: Sac7*40-PhoA chimera (binder 40 fused to the N-terminus of E. coli alkaline phosphatase) (designed binder)
chain: RTPEMPVDGTGSVKVKFGEHGEEKEVDTSKIMSVVRFGKWVCFRYDDNGKAGYGAVLEKDAPKELLDMLARAEREKKLRAQPGVLENRAAQGDITAPGGARRLTGDQTAALRDSLSDKPAKNIILLIGDGMGDSEITAARNYAEGAGGFFKGIDALPLTGQYTHYALNKKTGKPDYVTDSAASATAWSTGVKTYNGALGVDIHEKDHPTILEMAKAAGLATGNVSTAELQGATPAALVAHVTSRKCYGPSATSEKCPGNALEKGGKGSITEQLLNARADVTLGGGAKTFAETATAGEWQGKTLREQAQARGYQLVSDAASLNSVTEANQQKPLLGLFADGNMPVRWLGPKATYHGNIDKPAVTCTPNPQRNDSVPTLAQMTDKAIELLSKNEKGFFLQVEGASIDKQGHAANPCGQIGETVDLDEAVQRALEFAKKEGNTLVIVTADHAHASQIVAPDTKAPGLTQALNTKDGAVMVMSYGNSEEDSQEHTGSQLRIAAYGPHAANVVGLTDQTDLFYTMKAALGLK
notes: also called Sac7*-PhoA

How the values were obtained:
[1] = target: T1, PulD-N, soluble monomeric fragment …; test: SPR, immobilized biotinylated PulD-N
[2] = target: T3, PulD-CS, PulD variant lacking the N-domain (Klebsiella oxytoca, UniProt P15644 28-660); test: far-Western immunoblot
T3 construct: domain: PulD variant lacking the N-domain

[3] = target: T1, PulD-N, soluble monomeric fragment …
[4] = target: T2, full-length PulD, monomeric; test: cell-based or functional assay

Binder	binding result [1]	binding result [2]	ratio signal/background [3]	inhibition of pullulanase secretion, strain PAP5198 pCHAP231, IPTG induced [4] [%]
B1	no binding	–	–	–
B2	–	no binding	> 10	> 90
B3	–	–	> 10	> 90
B4	–	no binding	> 10	> 90
